Bridge positions count the residues as written; N and C are the ends. Square brackets hold non-standard residues; d marks the D form. * marks the point of attachment. NMeW = CN[C@@H](Cc1c[nH]c2ccccc12)C(=O)O; Isovaleryl = CC(C)CC(=O)*
T1: human ferroportin (SLC40A1) fused in frame with GFP, stably expressed in HEK293 cells (human, UniProt Q9NP59 1-571)
T1 sequence (looked up): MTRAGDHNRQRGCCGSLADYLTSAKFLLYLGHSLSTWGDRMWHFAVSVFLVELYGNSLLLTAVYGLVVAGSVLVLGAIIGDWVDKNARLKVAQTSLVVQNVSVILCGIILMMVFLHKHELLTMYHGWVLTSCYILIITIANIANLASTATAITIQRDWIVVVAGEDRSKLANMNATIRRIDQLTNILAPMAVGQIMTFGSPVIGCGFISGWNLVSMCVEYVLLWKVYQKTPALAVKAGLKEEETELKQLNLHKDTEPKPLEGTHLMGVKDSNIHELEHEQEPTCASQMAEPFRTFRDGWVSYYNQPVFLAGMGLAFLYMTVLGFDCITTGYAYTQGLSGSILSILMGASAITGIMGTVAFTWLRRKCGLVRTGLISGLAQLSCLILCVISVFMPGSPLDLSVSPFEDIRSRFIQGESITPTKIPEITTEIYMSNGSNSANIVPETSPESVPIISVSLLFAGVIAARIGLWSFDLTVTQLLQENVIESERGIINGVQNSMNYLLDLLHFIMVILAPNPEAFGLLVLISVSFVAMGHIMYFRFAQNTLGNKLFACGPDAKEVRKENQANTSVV

B1: Hy-DTHFPIICI-NH2 (peptide)
peptide: H-DTHFPIICI-NH2
B2: Hy-DTHICIAIF-NH2 (peptide)
peptide: H-DTHICIAIF-NH2
B3: Hy-DTHCPIAIF-NH2 (peptide)
peptide: H-DTHCPIAIF-NH2
B4: Hy-ATHFPCIIF-NH2 (peptide)
peptide: H-ATHFPCIIF-NH2
B5: Hy-ADHFPCIIF-NH2 (peptide)
peptide: H-ADHFPCIIF-NH2
B6: Hy-DTHFPCIIFKC-NH2 (peptide)
peptide: H-DTHFPCIIFKC-NH2
modifications: disulfide 6-11 (inferred)
B7: Hy-DTHFPCIIFAC-NH2 (peptide)
peptide: H-DTHFPCIIFAC-NH2
modifications: disulfide 6-11 (inferred)
B8: Hy-DTHFPCIIFAA-NH2 (peptide)
peptide: H-DTHFPCIIFAA-NH2
B9: Hy-DPHFPCIIF-NH2 (peptide)
peptide: H-DPHFPCIIF-NH2
B10: Hy-DTHKPCIIF-NH2 (peptide)
peptide: H-DTHKPCIIF-NH2
B11: Hy-DTHFVCIIF-NH2 (peptide)
peptide: H-DTHFVCIIF-NH2
B12: Hy-DTHFPCIIY-NH2 (peptide)
peptide: H-DTHFPCIIY-NH2
B13: Hy-DTHFPCIIT-NH2 (peptide)
peptide: H-DTHFPCIIT-NH2
B14: Hy-DTHFPCILY-NH2 (peptide)
peptide: H-DTHFPCILY-NH2
B15: Hy-DTHFPCIEY-NH2 (peptide)
peptide: H-DTHFPCIEY-NH2
B16: Isovaleric acid-DTHFPCIIFGPRSKG-[N-MeTrp]-VC-NH2 (peptide)
peptide: Isovaleryl-DTHFPCIIFGPRSKG[NMeW]VC-NH2
modifications: disulfide 6-18 (inferred)
B17: Isovaleric acid-DTHFPCIIF-[Sarc]-PRSKG-[N-MeTrp]-VC-NH2 (peptide)
peptide: DTHFPCIIFXPRSKGWVC
modifications: N-terminal isovaleric acid; Sarc at position 10; N-MeTrp at position 16; C-terminal amide
B18: Isovaleric acid-DTHFPCIIF-[Sarc]-PHSKG-[N-MeTrp]-VC-NH2 (peptide)
peptide: DTHFPCIIFXPHSKGWVC
modifications: N-terminal isovaleric acid; Sarc at position 10; N-MeTrp at position 16; C-terminal amide
B19: Isovaleric acid-DTHFPCIIFEPRSKHWVCK-NH2 (peptide)
peptide: Isovaleryl-DTHFPCIIFEPRSKHWVCK-NH2
modifications: disulfide 6-18 (inferred)
B20: Isovaleric acid-DTHFPCIIFEPRSKEWVCK-NH2 (peptide)
peptide: Isovaleryl-DTHFPCIIFEPRSKEWVCK-NH2
modifications: disulfide 6-18 (inferred)
B21: Isovaleric acid-DTHFPCIIFEPRSKLWVCK-NH2 (peptide)
peptide: Isovaleryl-DTHFPCIIFEPRSKLWVCK-NH2
modifications: disulfide 6-18 (inferred)
B22: Isovaleric acid-DTHFPCIIFEPRSKFWVCK-NH2 (peptide)
peptide: Isovaleryl-DTHFPCIIFEPRSKFWVCK-NH2
modifications: disulfide 6-18 (inferred)

Molecular target: T1, human ferroportin (SLC40A1) fused in …
Test: cell-based or functional assay

Point of comparison: B20, “Potency EC50 (nM), ferroportin-GFP internalization/degradation” value 19 nM. Against it:
- B1 — higher, > 10000 nM
- B2 — higher, > 10000 nM
- B3 — higher, > 10000 nM
- B4 — higher, > 1000 nM
- B5 — higher, > 1000 nM
- B6 — 340-fold higher, 6400 nM
- B7 — higher, > 1000 nM
- B16 — 1.7-fold higher, 32 nM
- B17 — 1.9-fold lower, 10 nM
- B18 — 2.1-fold lower, 9 nM
- B19 — within 1.5-fold, 15 nM
- B21 — 2.7-fold lower, 7 nM
- B22 — 1.9-fold lower, 10 nM

Point of comparison: B15, “Potency: percent at the stated concentration, ferroportin-GFP internalization/degradation” value 8 % at 1 uM. Against it:
- B8 — higher, 59 % at 1 uM
- B13 — higher, 23 % at 1 uM
- B14 — higher, 85 % at 1 uM

Point of comparison: B11, “Potency: percent at the stated concentration, ferroportin-GFP internalization/degradation” value 50 % at 10 uM. Against it:
- B9 — higher, 64 % at 10 uM
- B10 — lower, 45 % at 10 uM
- B12 — higher, 75 % at 10 uM
